Key:
[1] = molecular target: T1, B subunit of Enterococcus hirae V-ATPase, wild type (Enterococcus hirae, UniProt Q08637 1-458); assay: native gel or EMSA; purified A3B3 and DF complexes mixed in a 1:5 molar ratio, 1 h on ice; formation of A3B3DF (V1) confirmed by basic native-PAGE; details: both partners purified
T1 construct: B subunit of Enterococcus hirae V-ATPase; synthetic gene with E. coli codon usage in pET23d; also called B monomer; source: E. coli BL21 (DE3), purified
T1 sequence (looked up): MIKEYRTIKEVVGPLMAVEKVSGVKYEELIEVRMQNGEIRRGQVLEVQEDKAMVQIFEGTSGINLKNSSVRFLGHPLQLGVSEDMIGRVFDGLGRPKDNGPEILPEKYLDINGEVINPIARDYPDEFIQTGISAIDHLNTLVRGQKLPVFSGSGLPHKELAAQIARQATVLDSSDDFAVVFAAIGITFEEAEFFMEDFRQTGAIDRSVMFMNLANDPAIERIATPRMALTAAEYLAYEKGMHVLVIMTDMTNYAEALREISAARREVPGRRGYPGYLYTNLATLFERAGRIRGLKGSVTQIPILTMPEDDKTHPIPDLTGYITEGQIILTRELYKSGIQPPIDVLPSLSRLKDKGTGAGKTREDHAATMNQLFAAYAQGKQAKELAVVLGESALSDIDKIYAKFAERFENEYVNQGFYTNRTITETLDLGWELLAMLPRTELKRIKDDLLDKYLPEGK

[2] = molecular target: T2, A subunit of Enterococcus hirae V-ATPase, wild type (Enterococcus hirae, UniProt Q08636 1-593); assay: as above; details: both partners purified
T2 construct: A subunit of Enterococcus hirae V-ATPase; synthetic gene with E. coli codon usage in pET23d; also called A monomer; source: E. coli BL21 (DE3), purified
T2 sequence (looked up): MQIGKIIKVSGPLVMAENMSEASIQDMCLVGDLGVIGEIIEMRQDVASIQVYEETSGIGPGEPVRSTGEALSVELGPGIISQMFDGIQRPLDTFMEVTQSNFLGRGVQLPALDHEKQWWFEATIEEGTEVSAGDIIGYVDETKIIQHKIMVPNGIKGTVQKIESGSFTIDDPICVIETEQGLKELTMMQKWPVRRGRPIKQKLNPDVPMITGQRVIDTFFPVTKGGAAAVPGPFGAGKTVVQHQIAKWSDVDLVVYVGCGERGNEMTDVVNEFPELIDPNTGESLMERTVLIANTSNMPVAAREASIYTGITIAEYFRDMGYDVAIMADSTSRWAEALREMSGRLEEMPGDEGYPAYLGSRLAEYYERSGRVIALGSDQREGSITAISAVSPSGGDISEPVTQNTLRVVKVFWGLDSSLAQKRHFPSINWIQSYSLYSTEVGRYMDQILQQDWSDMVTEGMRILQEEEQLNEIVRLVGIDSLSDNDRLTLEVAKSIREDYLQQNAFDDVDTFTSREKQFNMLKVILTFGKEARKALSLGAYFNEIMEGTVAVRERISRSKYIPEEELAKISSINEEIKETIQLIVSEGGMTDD

B1: D subunit of Enterococcus hirae V-ATPase, wild type (natural protein, UniProt P43435 1-210, looked up)
chain: MRLNVNPTRMELTRLKKQLTTATRGHKLLKDKQDELMRQFILLIRKNNELRQAIEKETQTAMKDFVLAKSTVEEAFIDELLALPAENVSISVVEKNIMSVKVPLMNFQYDETLNETPLEYGYLHSNAELDRSIDGFTQLLPKLLKLAEVEKTCQLMAEEIEKTRRRVNALEYMTIPQLEETIYYIKMKLEENERAEVTRLIKVKNMGTEE
notes: D subunit of Enterococcus hirae V-ATPase; Was never handled alone; stands here for the pairs of subunits inside the DF and A3B3DF complexes; source: E. coli cell-free protein expression system, synthesized together with F, purified
B1: binds [1]; binds [2].

Source: PMC3772951 (PLoS ONE, 2013)
